US8173397B2, “Folded recombinant catalytic fragments of multidomain serine proteases, preparation and uses thereof” (TargetEx Kft., priority 2002, dated 2012)

Tests used:
[1] = molecular target: T1, MASP-2 fragments (Homo sapiens, UniProt O00187); assay: Inhibition of the enzymatic activities of the MASP-2 fragments by C1-inhibitor and alpha-2-macroglobulin; type: biochemical; conditions: for molar excess of inhibitor that abolishes all cleavages by the MASP-2 fragments: preincubation, C2, C3, C3(NH3), C4 substrates
T1 construct: T7-Tag fragment Ala-Ser-Met (N, cleaved yes); made in house
T1 sequence (O00187 445-686 limits assumed): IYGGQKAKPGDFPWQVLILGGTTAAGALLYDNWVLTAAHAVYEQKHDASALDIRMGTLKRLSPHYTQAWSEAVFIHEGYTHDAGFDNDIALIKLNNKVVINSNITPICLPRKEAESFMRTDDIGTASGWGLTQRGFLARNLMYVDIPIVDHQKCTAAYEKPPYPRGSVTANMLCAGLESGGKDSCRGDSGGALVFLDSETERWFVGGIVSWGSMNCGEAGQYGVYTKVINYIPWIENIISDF
T1 sequence (O00187 291-444 partner limits assumed): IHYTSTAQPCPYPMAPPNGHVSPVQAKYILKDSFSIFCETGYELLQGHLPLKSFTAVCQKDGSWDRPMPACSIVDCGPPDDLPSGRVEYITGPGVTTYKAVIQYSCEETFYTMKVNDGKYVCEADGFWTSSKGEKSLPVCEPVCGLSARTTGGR
Protocol: (§1) Reactivity toward C1-inhibitor and alpha-2-macroglobulin—Inhibition of the enzymatic activities of the MASP fragments by C1-inhibitor and alpha-2-macroglobulin were tested as follows. MASP-1 and MASP-2 fragments at concentrations selected in the C2, C3, C3(NH3) and C4 cleavage tests were incubated at 37° C. with excess molar ratios of either C1-inhibitor, alpha-2-macroglobulin, or buffer in 20 mM HEPES, 140 mM NaCl, pH 7.4 for 40 minutes. Complement substrates C2, C3, C3(NH3) or C4 were added at typical concentrations of 0.5-1 μM and the samples were further incubated for 20 minutes. The cleaved and uncleaved chains were visualized by reducing SDS-PAGE and the degree of inhibition was compared.

[2] = molecular target: T2, MASP-1 CCP1-CCP2-SP (Homo sapiens, UniProt P48740); assay: Inhibition of the enzymatic activities of the MASP-1 fragment by C1-inhibitor and alpha-2-macroglobulin; type: biochemical
T2 construct: made in house
T2 sequence (P48740 298-699): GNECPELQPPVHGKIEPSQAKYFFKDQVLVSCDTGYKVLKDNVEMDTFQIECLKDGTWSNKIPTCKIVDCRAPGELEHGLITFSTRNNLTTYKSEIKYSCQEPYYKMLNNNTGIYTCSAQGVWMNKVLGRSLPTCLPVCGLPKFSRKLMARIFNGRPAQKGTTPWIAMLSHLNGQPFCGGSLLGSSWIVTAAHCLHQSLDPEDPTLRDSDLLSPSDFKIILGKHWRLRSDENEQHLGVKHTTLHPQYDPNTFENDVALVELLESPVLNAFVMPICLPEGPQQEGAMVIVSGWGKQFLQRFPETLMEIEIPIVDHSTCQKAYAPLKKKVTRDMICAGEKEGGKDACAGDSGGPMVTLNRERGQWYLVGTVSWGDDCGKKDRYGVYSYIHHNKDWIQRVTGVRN
Protocol: as §1

[3] = marginal molar excess over the enzyme

Substance: C1-inhibitor: serpin C1-inhibitor purified from human serum
- effect on proteolytic activity of MASP-2 on all substrates, in words [1, 3]: completely abolished
- molar excess of inhibitor that abolishes all cleavages by the MASP-2 fragments [1]: 1-3 fold
- effect on proteolytic activity of MASP-1 on all substrates, in words [2, 3]: completely abolished

Substance: alpha-2-macroglobulin: human alpha-2-macroglobulin isolated from plasma
- molar excess over the MASP-2 fragments capable of significantly hindering C2 and C4 cleavage ([1]; C2 and C4 cleavage): 40 fold
- molar excess over MASP-2 CCP1-CCP2-SP that blocks C3 cleavages ([1]; C3 cleavage): 1-3 fold
- molar excess of inhibitor that abolishes all cleavages by the MASP-2 fragments [1]: 40 fold
- molar excess that completely blocks cleavage of C2 by the MASP-1 CCP1-CCP2-SP fragment ([2]; C2 cleavage): 1-3 fold
- molar excess over MASP-1 CCP1-CCP2-SP that blocks C3 cleavages ([2]; C3 cleavage): 1-3 fold
